From a protein production outcome set (Wang et al. 2014)

Experiment: label from the status in PepcDB records

MKYEYPAELPVSAARDEIASAVKRSQVVIVSGQTGSGKTTQLPKILLELGRGTHGKQIVHTQPRRIAARTVAERIASEMGVKLGDEVGYQVRFTDESSPGTRLRVVTDGILLAQIQRDPKLTRYDTIIIDEAHERSLNIDFLLGYLTALLPQRRDLKLIITSATIDSVKFQEHFEHALHEKVPVIEVSGRTFPVQVVYEPLGTAPALMREVPGFAVGARPGDADYDELASAIAESDSDRPRGRSGASYADDGITDMPTAVARACAELVIHSSHERGPRDILVFASGERDIHEFEAALRHHYGPRADDMRRPDAIEIMPLFARLSAADQHKVFESHLHQRIVIATNVAETSLTVPGIRYVVDPGSARISRYSKTAKVQRLPIEPISQASADQRSGRCGRVADGIAIRLYSREDYETRPRFTEPEILRTSLGAVVLHMLSVGVARTAEDVTNFGFIDPPDMKAVSDGFNELTELKAIGRKRGEVTLTHTGRQLARIPIDVRLGRMVIEAAKTGSPNLLAQVLVVVAFLSLQDPRERPDDKREDADRIHNRYADETSDFLTALNIWDRVFQADGDPSNNALRRICKTEYFSWLRMRQWKDLVSQLRQMCKELKFKVGDPLPASRPGLEIRQLPLNQQAAHSLCCAWDADGIHKSMLAGLLSMMGMQVVREPKASDFAGLTGSARARAMKRAQKQSKNDYQGARGTRFALFPASAVAKKTPSWVMSTELVETSRLWARYSAAIDPAWAEPLAGQLTRTTYAEPHWSGSRGSAVATARVLLYGLPIVQDRAVQWGRINPLEARDFLIRQGLVEGDIQQRFSYDDFVGKNRDILEDAADDASRTRQLADTVSDEDLFDFYNAVIPNDVTSVADLAKWWKSEHDRQPNLLDFDPAKVERLASSDSVSLDDYPDHWHTTGSDGQPIDLRLSYVYDPADPADGVTVHVPLKALSRITPDQFTWNVPGLLDELILSMIKALPKQLRVQFVPAPDAARAIRDWIDEHYPDLPGSGSQQKPNLPPVDEDGTTVGWPDLAHVFTKAAIATKGAQIHPEVLGPELVERLSPYLRVTFSVEQQLPAGKHPRGRRHARGPIKVLGVSKDLKALQRKFAAQAEASARQMVKKQADQAGEQGKLVSQANLLHKAGATTESRATMLWRGALDALRLPAERISSRWLGTEALMLASAPYKSTKDLVEDLQLATVKRLMPNVDRLSDDEALANAVLDVREVYEDTVYQVAHDVIAVLKAYAEVDKATGGKADLPMLSVLQSIRDHIATLVYPGFIGRTPPDALKSLSRYLRADLSRLNKAKTDKNRDVKWAWQADEARQVVDKALARAKAEPAGPKHEALMKQAEQARWMLEEFYVSLWAQELGTKGPASLNRIKKALA
protein production: failed

MKKTKVHLISGFLGTGKTTALKSLMAQKDPNEKWVIIVNEFGEIGIDGAVLSDNGIPVAEIAGGCLCCTAGPQMGVTVQKMLRDAKPDRLMIEASGLAHAASVIDELKTKPLDSLLEIGAVFTVVDPRQFINPDYAQQALYKDQIGICDVLVASKTDLCTPEQLAEFHDKAAKLFPPKAKVVEVQNAQLDIQWLDIPVIEKSRYRLKALPDNTMGFQSQGFTFPAGRDFDGEKLTNFFNDLPNMTEGLVRAKGVFQVLGTWVWLNWVDGQWGANQVSWRRDSRFELIAKSFDADLIEQKLKDALELEHHHHHH
protein production: failed

MGLFDEVVGAFLKGDAGKYQAILSWVEEQGGIQVLLEKLQSGGLGAILSTWLSNQQRNQSVSGEQLESALGTNAVSDLGQKLGVDTSTASSLLAEQLPKIIDALSPQGEVSAQANNDLLSAGMELLKGKLFR
protein production: not failed

MATVEEIEKYCRNCVSRDFVNGKGLVCKRTRELPDFDEECENFEKDEELLKMAPPKPDDFPVSMTEEELLAEENLPKGVLYASVACILGAVAWSLISVSTGLQMGYMAIGVGFLVGFAMRQGKGIRPVFGLLGAALALISCVLGDFLSIIGFAAKDYDMTFFEVLAGVDYGEIFSVMVKNVVSMSALFYGIAVYEGYKLSFRAQKHPVGGKI
protein production: failed

MKQIIDIENWERKENFNFFRHFQNPQLSITSEVECGGARQRAKAAGQSFFLHYLYAVLRAANEIPEFRYRIDPDGRVVLYDTIDMLSPIKIKENGKFFTTRFPYHNDFDTFYQEARLIIDAIPEDGDPYAAENEEVADGDYGLILLSATPDLYFTSITGTQEKRSGNNYPLLNAGKAIIREGRLVMPIAMTIHHGFIDGHHLSLFYKKVEDFLK
protein production: not failed

MIDTLKNIKVKDVMTKNVITAKRHEGVVEAFEKMLKYKISSLPVIDDENKVIGIVTTTDIGYNLIRDKYTLETTIGDVMTKDVITIHEDASILEAIKKMDISGKKEEIINQLPVVDKNNKLVGIISDGDIIRTISKII
protein production: not failed
